Measurements taken from patent US20240182548A1 (AstraZeneca / MedImmune, published 2024).

B1: 2094 (antibody, V domains shown)
VH: EVQLVESGGGVVRPGGSLRLSCAASGFIFDDYDMTWVRQAPGKGLEWVSGINWNGGSTGYADSVKGRFTISRDNAKNSLYLQMNSLRAEDTALYHCAVIMSPIPRYSGYDWAGDAFDIWGQGTMVTVSS
VL: SSELTQDPAVSVALGQTVRITCQGDSLRSYYASWYQQKPGQVPILVIYDKNNRPSGIPDRFSGSSSGNTASLTITGAQAEDEADYYCNSRDSSGNAVVFGGGTKLTVL
B2: 2096 (antibody, V domains shown)
VH: QVQLVQSGAEVKKPGASVKVSCKASGYTFGSFDINWVRQATGQGLEWMGRMNSNSGNTAYAQKFQGRVTMTRDTSTNTAYMELSSLRSEDTAMYYCARMRSGWPTHGRPDDFWGRGTLVTVSS
VL: QSVLTQAPSASGTPGQRVTISCSGSNSNIGSYTINWYQQLPGTAPKLLIYGNDQRTSGVPDRFSGSKFGTSASLAISGLQSEDENNYYCAVWDDSLNGLVFGGGTKLTVL

Target: SARS2 spike protein with C-terminal 19aa deletion, on S protein pseudotyped lentivirus (SARS-CoV-2, UniProt P0DTC2 13-1254)
Test: cell-based or functional assay

| Binder | Pseudovirus neutralization IC50 [ng/mL] |
| --- | --- |
| B1 | 3 |
| B2 | 3.3 |
